One experiment addresses T1, RXFP1 F54A (Homo sapiens, UniProt Q9HBX9, F76A).
T1 construct: cells expressing full-length RXFP1 and mutants; expressed in transfected cells; host or cells: HEK293T
T1 sequence (Q9HBX9 23-757 F76A limits assumed): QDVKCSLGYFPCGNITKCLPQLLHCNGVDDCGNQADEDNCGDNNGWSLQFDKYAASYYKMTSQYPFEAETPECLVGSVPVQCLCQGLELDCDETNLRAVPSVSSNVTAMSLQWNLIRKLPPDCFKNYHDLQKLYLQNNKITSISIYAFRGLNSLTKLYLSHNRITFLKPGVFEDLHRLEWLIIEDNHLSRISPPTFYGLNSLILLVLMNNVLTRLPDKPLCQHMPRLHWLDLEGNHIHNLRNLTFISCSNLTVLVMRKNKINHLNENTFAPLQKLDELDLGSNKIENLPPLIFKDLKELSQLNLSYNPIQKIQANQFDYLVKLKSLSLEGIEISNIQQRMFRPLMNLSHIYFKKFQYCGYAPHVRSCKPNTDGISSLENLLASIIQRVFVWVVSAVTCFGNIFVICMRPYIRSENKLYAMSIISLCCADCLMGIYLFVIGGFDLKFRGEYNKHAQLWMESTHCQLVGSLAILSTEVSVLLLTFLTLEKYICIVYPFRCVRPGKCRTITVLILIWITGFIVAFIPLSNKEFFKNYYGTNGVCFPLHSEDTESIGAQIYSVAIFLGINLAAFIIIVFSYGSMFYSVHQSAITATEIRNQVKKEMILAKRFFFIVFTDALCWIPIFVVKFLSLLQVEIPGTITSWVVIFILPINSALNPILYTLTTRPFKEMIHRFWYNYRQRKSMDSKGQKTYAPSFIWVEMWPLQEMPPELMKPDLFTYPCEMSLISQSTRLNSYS
The experiment is described as follows: Eu-H2 relaxin saturation binding assay, transfected HEK293T cells. To be noted: F54A-RXFP1 versus wild-type RXFP1.

For experiment [1], the target named is RXFP1 F50A^ins, full length (human).
Experiment [2] has as its target RXFP1 S47A/L48A, full length (human).
The target of experiment [3] is relaxin family peptide receptor-1 (RXFP1), wild type, full length (human) (UniProt Q9HBX9).
The target in experiment [4] is RXFP1 F54A, full length (human).
Experiment [5] has as its target RXFP1 A55L, full length (human).
In experiment [6] the target is RXFP1 N43A/N44A, full length (human).
For experiment [7], the target named is RXFP1 N43A, full length (human).
The target of experiment [8] is RXFP1 D42A, full length (human).
Experiment [9] addresses RXFP1 K52A, full length (human).
The target of experiment [10] is RXFP1 N44A, full length (human).
The target of experiment [11] is RXFP1 T61A, full length (human).
Experiment [12] deals with RXFP1 F54A/Y58A, full length (human).
In experiment [13] the target is RXFP1 A55S, full length (human).
Experiment [14] concerns the target RXFP1 E67A, full length (human).
Experiment [15] concerns the target RXFP1 E67A^ins, full length (human).
In experiment [16] the target is RXFP1 F50A, full length (human).
The target of experiment [17] is T2, RXFP1 A68^Δ, full length (human) (UniProt Q9HBX9).
T2 sequence: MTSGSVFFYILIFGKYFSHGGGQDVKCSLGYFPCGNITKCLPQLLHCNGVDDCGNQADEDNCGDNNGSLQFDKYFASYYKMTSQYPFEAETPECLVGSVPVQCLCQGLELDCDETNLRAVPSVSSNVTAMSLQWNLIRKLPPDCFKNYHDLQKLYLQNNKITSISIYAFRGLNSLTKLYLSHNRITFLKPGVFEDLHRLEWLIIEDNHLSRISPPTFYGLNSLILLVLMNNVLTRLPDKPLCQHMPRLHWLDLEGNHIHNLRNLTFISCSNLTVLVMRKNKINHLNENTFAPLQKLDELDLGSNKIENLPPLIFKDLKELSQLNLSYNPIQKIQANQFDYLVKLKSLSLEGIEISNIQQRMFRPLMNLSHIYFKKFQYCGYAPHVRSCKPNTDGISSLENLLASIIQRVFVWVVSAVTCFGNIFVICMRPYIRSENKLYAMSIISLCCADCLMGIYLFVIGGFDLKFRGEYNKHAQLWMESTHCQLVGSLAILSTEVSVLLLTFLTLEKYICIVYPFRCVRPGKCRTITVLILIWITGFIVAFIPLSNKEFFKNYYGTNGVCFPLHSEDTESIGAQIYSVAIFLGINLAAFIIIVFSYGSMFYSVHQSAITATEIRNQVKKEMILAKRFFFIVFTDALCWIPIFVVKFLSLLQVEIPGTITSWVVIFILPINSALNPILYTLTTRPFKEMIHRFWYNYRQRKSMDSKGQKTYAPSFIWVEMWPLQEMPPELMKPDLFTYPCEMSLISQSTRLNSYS

For experiment [18], the target named is RXFP1 Y57A, full length (human).
For experiment [19], the target named is RXFP1 Y58A, full length (human).
For experiment [20], the target named is RXFP1 F66A, full length (human).
Experiment [21] addresses RXFP1 Q49A/F50A, full length (human).

Where only a bound is given, the exact number is not on record here.

In the case of “H2 relaxin: two-chain 6-kDa peptide hormone structurally related to insulin; recombinant human gene-2 H2 relaxin provided by Corthera”, the “loss in H2 relaxin binding” value with RXFP1 F54A is “fourfold”.

B1: H2 relaxin (ligand, human)
chain 1: QLYSALANKCCHVGCTKRSLARFC
chain 2: DSWMEEVIKLCGRELVRAQIAICGMSTWS
Turning to B1, the H2 relaxin-induced cAMP response (pCRE β-galactosidase reporter, HEK293T), pEC50 came to 9.41 pEC50 in experiment [1]; 11.1 pEC50 in [2]; 11 pEC50 in experiment [3]; 10.2 pEC50 in experiment [4]; 10.8 pEC50 in experiment [5]; 8.29 pEC50 in experiment [6]. In addition, the H2 relaxin-induced cAMP response (pCRE β-galactosidase reporter, HEK293T), pEC50 in experiment [7] was 9.06 pEC50; in experiment [8], below 6 pEC50; in experiment [9] it was 11.1 pEC50; in [10] it was 11 pEC50; in experiment [11] it was 11.2 pEC50; in experiment [12], 9.87 pEC50. Besides, the H2 relaxin-induced cAMP response (pCRE β-galactosidase reporter, HEK293T), pEC50 in experiment [13] came to 11.4 pEC50; in experiment [14], 11.1 pEC50; in experiment [15], 11.3 pEC50; in experiment [16], 9.45 pEC50; in experiment [17], 11.2 pEC50; in [18], 10.9 pEC50. The H2 relaxin-induced cAMP response (pCRE β-galactosidase reporter, HEK293T), pEC50 in experiment [19] worked out at 10.9 pEC50; in experiment [20], 11.2 pEC50; in experiment [21], 9.17 pEC50.

Values taken from paper PMC4837482, “The complex binding mode of the peptide hormone H2 relaxin to its receptor RXFP1” (Nature Communications, 2016).
